Data as given in patent US20050055741, “Plant transcriptional repressor, proteic nuclear factors binding thereto, and uses thereof” (published 2005).

Tests used:
SEBF (recombinant) [1] = biological target: T1, SEBF (recombinant) (Solanum tuberosum); test: EMSA; specificity stated similar to native SEBF; details: tags: GST fusion expressed in E. coli BL21; GST cleaved with thrombin; label: 32P
T1 chain: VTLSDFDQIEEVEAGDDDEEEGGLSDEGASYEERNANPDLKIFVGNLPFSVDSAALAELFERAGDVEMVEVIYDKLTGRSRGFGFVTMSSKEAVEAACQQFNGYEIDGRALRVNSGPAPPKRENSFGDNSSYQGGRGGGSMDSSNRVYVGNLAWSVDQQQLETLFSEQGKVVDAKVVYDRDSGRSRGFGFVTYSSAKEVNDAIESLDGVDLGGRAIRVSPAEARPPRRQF
Excerpt: (§1) FIGS. 2A, 2B, 2C and 2D show mutational analysis of potato silencing element (SE). FIG. 2A: Schematic representation of the reporter constructs and mutant oligonucleotides used in this study. Reporter constructs contain the PR-10a promoter region from −135 to +136 fused to the bacterial gene uidA encoding […] (GUS). The position of the elicitor response element (ERE), the silencing element (SE) and the TATA box are shown (TATA). The transcriptional start site is indicated by an arrow. The common sequence between the wild-type (WT; SEQ ID NO:45) and mutant oligonucleotides m1 to m5 (SEQ ID NOs:1 to 5) is indicated by dashed lines, and mutated nucleotides are represented by lowercase letters. FIG. 2B: EMSA studies using 10 μg of crude potato tuber nuclear preparation and 20,000 CPM of the ³²P labeled single-stranded CS oligonucleotides presented in FIG. 2A. FIG. 2C: EMSA studies using 10 ng of purified recombinant SEBF and 20,000 CPM of the ³²P labeled single-stranded CS oligonucleotides presented in FIG. 2A. FIG. 2D: The sequence from −52 to −27 of the PR-10a promoter fused to the uidA gene was replaced by the sequences presented in FIG. 2A. The resulting plasmids were electroporated in potato leaf protoplasts and the GUS activity was measured. The histogram represents fold activity to wild type (WT=1). […]

SEBF (recombinant) [2] = biological target: T1, SEBF (recombinant); test: EMSA; specificity similar to native SEBF; details: tags: GST fusion expressed in E. coli BL21; GST cleaved with thrombin; label: 32P
Excerpt: as §1

[3] = biological target: T2, SEBF (affinity purified, 29 and 28 kD bands) (Solanum tuberosum); test: southwestern; 29 and 28 kD bands each bind; details: tags: none; label: 32P
T2 chain: T1 chain
Protocol: FIG. 4 is a picture of a gel showing the purification of SEBF. Coomassie staining of proteins from each step of the purification of SEBF (lanes 1 through 4). The crude nuclear extract (Crude; lane 1) was loaded on a Q-Sepharose™ column. SEBF was eluted at 400 mM NaCl (Q-seph; lane 2) before two rounds of affinity purification (Aff.1, Aff.2; lane 3, lane 4). […] Arrows indicate the two purified bands. Molecular weight markers are indicated on the left.
Both of these proteins were subjected to N-terminal sequence analysis.

SEBF (recombinant) [4] = biological target: T1, SEBF (recombinant); test: EMSA; 10 ng recombinant SEBF; details: tags: GST fusion expressed in E. coli BL21; GST cleaved with thrombin; label: 32P
Excerpt: as §1

Binder: CATGGACTGTCACTTGTTTTTTTTA (ssDNA) [SE m2]
- binding result (SEBF (recombinant) [1]): binds

Binder: TCTAGATCGAATTCCGCTCGACCGG (ssDNA) [SE m1]
- binding result (SEBF (recombinant) [2]): no binding

Binder: TCTAGACTGTCACTTGTTTTTTTTA (ssDNA) [PR-10a SE coding strand WT]
- binding result [3]: binds
- binding result (SEBF (recombinant) [4]): binds
